# Reference: article PMC9864903, “Imaging of the Glucose-Dependent Insulinotropic Polypeptide Receptor Using a Novel Radiolabeled Peptide Rationally Designed Based on Endogenous GIP and Synthetic Exendin-4 Sequences” (Pharmaceuticals, 2022)
# Tests used:
# [1] = dynamic PET/CT organ distribution in pig; format: in vivo; conditions: liver, total radioactivity, dynamic PET/CT
# Text: An anesthetized pig (25 kg) was positioned to include the abdomen with pancreas in the center of the 25 cm axial field of view of a Discovery MI PET/CT scanner (GE Healthcare, MI, USA) by assistance of a low-dose CT scout view (140 kV, 10 mAs). The details of the animal handling, preparation, and anesthesia have been previously described.
# Attenuation correction was acquired by a 140 kV, 10–80 mA CT examination. The administration of [^68Ga]Ga-C803-GIP (17.3 MBq, corresponding to approximately 2.5 μg peptide or 0.10 μg/kg) was made upon the start of the baseline dynamic scan lasting for 90 min (30 frames; […]). The dynamic scan was followed by a static scan over the brain from 90–120 min post administration. A second PET investigation was performed after an additional 2 h to allow the radioactivity from the first scan to fade from the circulation by decay and excretion.
# The GIP(1-42) infusion was continued until the end of the PET scan. Finally, after the last PET scan, a contrast-enhanced CT scan was performed to assist delineation of the tissues, e.g., the pancreas.
# Segmentation of the tissues of interest (descending aorta, pancreas, spleen, kidney, liver, and muscle) was performed in PMOD (PMOD Technologies), and time–activity curves were expressed as SUV as detailed above.
# [2] = ex vivo organ distribution in Sprague Dawley rats; conditions: rat, i.v.
# Method: The in vivo organ distribution of [^68Ga]Ga-C803-GIP was assessed in Sprague Dawley rats (324 ± 36 g, male, n = 16). The radiotracer was administered into the tail vein of unsedated animals as a bolus in 0.5–0.6 mL of PBS as the vehicle. The animals received 4.1 ± 2.2 MBq/kg ^68Ga]Ga-C803-GIP corresponding to 2.4 ± 1.3 µg/kg peptide mass.
# The in vivo organ distribution was conducted for 5 to 180 min, euthanizing two animals at each of eight time points (5, 10, 20, 40, 60, 90, 120, or 180 min). Samples of blood, heart, lung, liver, pancreas, spleen, adrenal, kidney, small intestine (without/with its content), large intestine (without its content), feces, urinary bladder (rinsed), testis, muscle, bone, bone marrow, thyroid, and brain were immediately harvested, weighed, and measured for radioactivity (gamma counter). The organ uptake of [^68Ga]Ga-C803-GIP was corrected for radioactivity decay to the time point of administration and expressed as standardized uptake values (SUVs, Equation (1)). (1) SUV (1/1)=Radioactivitytissue (Bq)/Weighttissue(g)/Radioactivityinjected (Bq)/Weightbody(g)
# The competition experiments were designed and guided by the results of the organ distribution study. Based on the observed rapid clearance of [^68Ga]Ga-C803-GIP from the pancreas (known to contain the GIPR), 20 min post-administration was the time point selected for the blocking studies. The rats (351 ± 23 g, male, n = 8) were administered [^68Ga]Ga-C803-GIP (18.4 ± 3.7 MBq/kg; 10.7 ± 2.2 µg/kg). A high radioactive dose was selected to potentially increase the tissue signal. Half of them (n = 4) received [^68Ga]Ga-C803-GIP alone, while the other half was co-injected with 1 mg/kg of non-labeled C803-GIP. The animals were sacrificed 20 min after the administration of [^68Ga]Ga-C803-GIP, and the tissue uptake of the tracer was analyzed as described above.
# [3] = human predicted dosimetry extrapolated from rat organ distribution (OLINDA/EXM 1.1)
# Method: The predicted dosimetry in humans was calculated using [^68Ga]Ga-C803-GIP organ distribution data obtained in healthy male Sprague Dawley rats. The rat decay-uncorrected SUVs (SUVA) in various organs were normalized to the whole-body adult reference phantom weights (Equation (2)) in order to assess the residence times (MBq-h/MBq) of the tracer in those organs. The data from the measured time points (5, 10, 20, 40, 60, 90, 120, and 180 min) were used for trapezoidal approximation followed by the extrapolation from the last point to infinity by a single exponential fit. The bone marrow blood volume model was used for the determination of the residence time in bone marrow. The absorbed doses were calculated using OLINDA/EXM version 1.1 with reference to adult male and female phantoms (International Commission on Radiological Protection 60). (2) [%/organ]human=SUVA×(gorgan/kgweight)human
smiles,measurement,setting,value
"CC[C@H](C)[C@H](NC(=O)[C@H](CO)NC(=O)[C@H](Cc1ccc(O)cc1)NC(=O)[C@H](CC(=O)O)NC(=O)[C@H](CO)NC(=O)[C@@H](NC(=O)[C@H](Cc1ccccc1)NC(=O)[C@@H](NC(=O)CNC(=O)[C@H](CCC(=O)O)NC(=O)[C@@H](C)NC(=O)[C@@H](N)Cc1ccc(O)cc1)[C@@H](C)O)[C@@H](C)CC)C(=O)N[C@@H](C)C(=O)N[C@@H](CC(C)C)C(=O)N[C@@H](CC(=O)O)C(=O)N[C@@H](CCCCN)C(=O)N[C@H](C(=O)N[C@@H](Cc1c[nH]cn1)C(=O)N[C@@H](CCC(N)=O)C(=O)N[C@@H](CCC(N)=O)C(=O)N[C@@H](CCC(=O)O)C(=O)N[C@@H](Cc1ccccc1)C(=O)N[C@H](C(=O)N[C@@H](CCC(=O)O)C(=O)N[C@@H](Cc1c[nH]c2ccccc12)C(=O)N[C@@H](CC(C)C)C(=O)N[C@@H](CCCCN)C(=O)N[C@@H](C)C(=O)NCC(=O)NCC(=O)N[C@@H](Cc1c[nH]cn1)C(=O)N1CCC[C@H]1C(=O)N[C@@H](CO)C(=O)NCC(=O)N[C@@H](C)C(=O)N1CCC[C@H]1C(=O)N1CCC[C@H]1C(=O)N1CCC[C@H]1C(=O)N[C@@H](CO)C(=O)N[C@@H](CSCCS(=O)(=O)CCN1CCN(CC(=O)O)CCN(CC(=O)O)CCN(CC(=O)O)CC1)C(N)=O)[C@@H](C)CC)[C@@H](C)CC [[^68Ga]Ga-C803-GIP, metal not drawn]",SUV at 0.5 h,[1]; read-out: uptake in the liver after 30 min,< 1 SUV
same,SUV at 1.5 h,[1]; read-out: uptake in the liver after 90 min,~0.5 SUV
same,SUV at 5 min,"[2]; male, Sprague Dawley, liver, iv, total radioactivity, 5 min post-administration, read-out: liver uptake",< 1 SUV
same,"liver washout with respect to the 5 min time point, within 1 h",[2],50%
same,"liver washout with respect to the 5 min time point, within 3 h",[2],75%
same,kidney uptake,[2]; within 3 h,85.5 ± 1.6 SUV
same,"predicted absorbed radiation dose, kidneys, females",[3]; human,0.773 mGy/MBq
same,"predicted absorbed radiation dose, kidneys, males",[3]; human,0.713 mGy/MBq
same,"Equivalent dose, Adrenals, Female",[3]; human female phantom,0.0124 mSv/MBq
same,"Equivalent dose, Brain, Female",[3]; human female phantom,0.000658 mSv/MBq
same,"Equivalent dose, Breasts, Female",[3]; human female phantom,0.00113 mSv/MBq
same,"Equivalent dose, Gallbladder Wall, Female",[3]; human female phantom,0.00555 mSv/MBq
same,"Equivalent dose, Heart Wall, Female",[3]; human female phantom,0.0362 mSv/MBq
same,"Equivalent dose, Kidneys, Female",[3]; human female phantom,0.773 mSv/MBq
same,"Equivalent dose, LLI Wall, Female",[3]; human female phantom,0.00196 mSv/MBq
same,"Equivalent dose, Liver, Female",[3]; human female phantom,0.00754 mSv/MBq
same,"Equivalent dose, Lungs, Female",[3]; human female phantom,0.0073 mSv/MBq
same,"Equivalent dose, Muscle, Female",[3]; human female phantom,0.00306 mSv/MBq
same,"Equivalent dose, Osteogenic Cells, Female",[3]; human female phantom,0.0145 mSv/MBq
same,"Equivalent dose, Pancreas, Female",[3]; human female phantom,0.0089 mSv/MBq
same,"Equivalent dose, Red Marrow, Female",[3]; human female phantom,0.0135 mSv/MBq
same,"Equivalent dose, Skin, Female",[3]; human female phantom,0.001 mSv/MBq
same,"Equivalent dose, Small Intestine, Female",[3]; human female phantom,0.00398 mSv/MBq
same,"Equivalent dose, Spleen, Female",[3]; human female phantom,0.0124 mSv/MBq
same,"Equivalent dose, Stomach Wall, Female",[3]; human female phantom,0.00374 mSv/MBq
same,"Equivalent dose, Testes/Ovaries, Female",[3]; human female phantom,0.00189 mSv/MBq
same,"Equivalent dose, Thymus, Female",[3]; human female phantom,0.00198 mSv/MBq
same,"Equivalent dose, Thyroid, Female",[3]; human female phantom,0.000543 mSv/MBq
same,"Equivalent dose, ULI Wall, Female",[3]; human female phantom,0.00371 mSv/MBq
same,"Equivalent dose, Urinary Bladder Wall, Female",[3]; human female phantom,0.00202 mSv/MBq
same,"Equivalent dose, Adrenals, Male",[3]; human male phantom,0.00936 mSv/MBq
same,"Equivalent dose, Brain, Male",[3]; human male phantom,0.000541 mSv/MBq
same,"Equivalent dose, Breasts, Male",[3]; human male phantom,0.000934 mSv/MBq
same,"Equivalent dose, Gallbladder Wall, Male",[3]; human male phantom,0.00515 mSv/MBq
same,"Equivalent dose, Heart Wall, Male",[3]; human male phantom,0.0319 mSv/MBq
same,"Equivalent dose, Kidneys, Male",[3]; human male phantom,0.713 mSv/MBq
same,"Equivalent dose, LLI Wall, Male",[3]; human male phantom,0.00166 mSv/MBq
same,"Equivalent dose, Liver, Male",[3]; human male phantom,0.006 mSv/MBq
same,"Equivalent dose, Lungs, Male",[3]; human male phantom,0.00576 mSv/MBq
same,"Equivalent dose, Muscle, Male",[3]; human male phantom,0.00227 mSv/MBq
same,"Equivalent dose, Osteogenic Cells, Male",[3]; human male phantom,0.0109 mSv/MBq
same,"Equivalent dose, Pancreas, Male",[3]; human male phantom,0.00777 mSv/MBq
same,"Equivalent dose, Red Marrow, Male",[3]; human male phantom,0.014 mSv/MBq
same,"Equivalent dose, Skin, Male",[3]; human male phantom,0.000859 mSv/MBq
same,"Equivalent dose, Small Intestine, Male",[3]; human male phantom,0.0031 mSv/MBq
same,"Equivalent dose, Spleen, Male",[3]; human male phantom,0.0101 mSv/MBq
same,"Equivalent dose, Stomach Wall, Male",[3]; human male phantom,0.00335 mSv/MBq
same,"Equivalent dose, Testes/Ovaries, Male",[3]; human male phantom,0.00137 mSv/MBq
same,"Equivalent dose, Thymus, Male",[3]; human male phantom,0.00178 mSv/MBq
same,"Equivalent dose, Thyroid, Male",[3]; human male phantom,0.000487 mSv/MBq
same,"Equivalent dose, ULI Wall, Male",[3]; human male phantom,0.00309 mSv/MBq
same,"Equivalent dose, Urinary Bladder Wall, Male",[3]; human male phantom,0.00152 mSv/MBq
same,"Effective dose, Female","[3]; whole-body, human female phantom",0.0237 mSv/MBq
same,"Effective dose, Male","[3]; whole-body, human male phantom",0.0217 mSv/MBq
